Test results from patent US11319552B2, “Methods for improving transformation frequency” (SYNGENTA PARTICIPATIONS AG, priority 2016, dated 2022).

Columns and labels:
immature embryos [1] = experiment: Second selection experiment, transformation frequency with 40 mg/L ammonium glufosinate or 5 mg/L bialaphos; type: cell-based, maize
Method: 10 mg/L to 40 mg/L of ammonium glufosinate all had survivor transgenic plant candidates for the binary vector comprising PAT variant type 3b. […] A second experiment was performed using 40 mg/L ammonium glufosinate, or using the GS inhibitor bialaphos at 5 mg/L. For this experiment, following transformation the immature embryos were selected, plants were regenerated and rooted, and transgenic plants were identified so that transformation frequency could be calculated.

immature embryos [2] = experiment: Kill curve, ammonium glufosinate concentration for selection, survival percentage; type: cell-based, maize; details: for % Survival: plants that rooted over immature embryos transformed
Method: The expression cassette of PAT variant type 3b (SEQ ID NO: 13) was introduced into a binary vector, now referred to as 23419. Binary vector 18857 (described in Table 2), which expresses cPAT-09, was used as a control. […] For vector 23419, 75-86 immature embryos were transformed using Agrobacteria similar to the method described in Example 4. Selection was performed using 10-80 mg/L of ammonium glufosinate (Ignite®). Following selection, plantlets were regenerated and then transferred to rooting media. The survival percentage (%) is shown as the number of plants that rooted over the number of immature embryos initially transformed.

B1: cPAT-09: control PAT DNA sequence codon optimized to Arabidopsis thaliana (SEQ ID NO: 21); tested here in binary vector 18857 (nucleic acid)
DNA: ATGTCTCCGGAGAGGAGACCAGTTGAGATTAGGCCAGCTACAGCAGCTGATATGGCCGCGGTTTGTGATATCGTTAACCATTACATTGAGACGTCTACAGTGAACTTTAGGACAGAGCCACAAACACCACAAGAGTGGATTGATGATCTAGAGAGGTTGCAAGATAGATACCCTTGGTTGGTTGCTGAGGTTGAGGGTGTTGTGGCTGGTATTGCTTACGCTGGGCCCTGGAAGGCTAGGAACGCTTACGATTGGACAGTTGAGAGTACTGTTTACGTGTCACATAGGCATCAAAGGTTGGGCCTAGGCTCCACATTGTACACACATTTGCTTAAGTCTATGGAGGCGCAAGGTTTTAAGTCAGTGGTTGCTGTTATAGGCCTTCCAAACGATCCATCTGTTAGGTTGCATGAGGCTCTAGGATACACAGCGCGGGGTACACTGCGCGCAGCTGGATACAAGCATGGTGGATGGCATGATGTTGGTTTTTGGCAAAGGGATTTTGAGTTGCCAGCTCCTCCAAGGCCAGTGAGGCCAGTTACCCAGATCTGA
modifications: derived from Streptomyces viridochromogenes
- Total # Events (immature embryos [1]; 5 mg/L Bialaphos): 7
- Transformation frequency % (TF) (immature embryos [1]; 5 mg/L Bialaphos): 0.875%
- Total # Events (immature embryos [1]; 40 mg/L ammonium glufosinate): 5
- Transformation frequency % (TF) (immature embryos [1]; 40 mg/L ammonium glufosinate): 0.625%
- % Survival (immature embryos [2]; 10 mg/L ammonium glufosinate): 1.3%
- % Survival (immature embryos [2]; 20 mg/L ammonium glufosinate): 1.3%
- survival of selection (in words) (immature embryos [2]; 40 mg/L ammonium glufosinate): did not survive selection
- % Survival (immature embryos [2]; 40 mg/L ammonium glufosinate): 0%
- % Survival (immature embryos [2]; 80 mg/L ammonium glufosinate): 0%
